# Test results reported in the supplement of paper PMC9942255.
# Values joined by “and” are separate entries in the source; they are usually repeats but may differ in a detail not shown here. Identical values can stand only once.
# Test system: Bacillus subtilis DB104 (SP-AmyQ fusion secretion)
# Assay: AmyQ secretion efficiency, weighted average sort bin (1 = best secretion, 10 = worst) (bin number (weighted average, 1-10)); higher = lower secretion efficiency
# How it was run: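 With fluorescein-starch as substrate, a B. subtilis DB104 library expressing mature AmyQ fused to designed signal peptides (integrated at amyE) was encapsulated at about 0.3 cells per ~65 nL alginate bead. After about 13 h at room temperature, beads were nile red stained, and occupied beads were sorted by large-particle flow cytometry into 10 equally populated bins by green/red fluorescence ratio. Illumina sequencing of the amplicons in each bin was used to calculate the secretion score, which is the read-frequency-weighted average bin number, normalised to beads per bin, with low-abundance sequences left out.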
row,Sequence,AmyQ secretion efficiency
1,MRKKRVITCVMAASLTLGSLLSPAGYASAKED,3.22
2,MKKQIITATTAVVLGSTLFAGALSAQSI,2.54
3,MKKRKRRVSALTPSTTLAITAKAKEL,6.69
4,MFNRLFRVCFLAALIMAFTLPNSVYCQKP,4.33
5,MLKKIALTLCPAIVGSLLFFTAGASAHVS,3.12
6,MKQGKFSSFLILLLMLTLVVAPKEKAEAASS,2.33
7,MKVLLSALLLLLFAFEPSGSGKKL,5.88
8,MLKKKWMVGLLAGCLAAGGFSYNAFNTEN,6.56
9,MTKLKMLSMLRKKKRRLFIFSSQALAVQY,6.63
10,MKQRKRVSALTPSTTLAITAKAKEL,7.26
11,MTSLMMLSMLTVMIASLFIFSSQALAVQY,3.98
12,MIAYFGKCLLLVTIMFLGVLFGMQQMNHG,5.05
13,MKSKGSIMACLILFSFTITTFINTETSSVFTPISAFSN,6.5
14,MKRLLVSLRVWMVFLMNWVTPDRKTAAAAEE,6.3
15,MKLRKVLTGSVLSLGLLVSASPTFATSP,1.93
16,MLFIFVITCVMAASLTLGSLLPAGYATAKED,4.43
17,MKRLCLWFTVFSLFLVLLPGKALGARR,2.37
18,MTMLRKIIGWILLLCIIPSKQQSSIASGKEV,6.84
19,MKRIRIPMTLALGAALTIAPLSFWSAEEN,6.56
20,MKRLLVSLRVWMPDRKTAAAAVY,6.76
21,MMKKGLLAGALTATVLFIGTCAVDVPGIISPKTAEAASQ,1.04
22,MTMLRKIIGWILLLCIIPLFAFTVIASNKEV,5.99
23,MLIRKRRNFKRFIAAFLVLALMISLVPADVLAKST,1.85
24,MRKKLKWLSFLLGFIILLFLFKYQFSSNDS,5.44
25,MKSKGSIMACLILFSFTITTFIAFITISAFSN,5.09
26,MKQFAITLSVLCALILLVPTLLVIPFVSAAEAGASV,3.34

row,Sequence,AmyQ secretion efficiency
1,MMKKGLLAGALTATVLFGTCAVGVPGIISPKTAEAASQ,1.35
2,MKSCKQLIVCSLAAILLLKRKKKRSFAADS,7.68
3,MKKRLIAPMLLSAASLAFFAMSGSAQLAAY,6.99
4,MKKKQVMLALTAAAGLHSAPAAKAAPL,3.17
5,MKSKWMSGLLLVAVGFSFTQVMEHAGET,7.11
6,MKLKSKLLLSCLALSTVFVATTIANAKRR,7.22
7,MKLSVKIAGVLTVAAAAMTAKMYATLKGN,7.31
8,MVKKWLIMFAVMLGVLMTFTYSASAVGV,1.93
9,MKKAFILSAAAAVGLFTFGGVQQMSAKEL,2.71
10,MKVPKTMLLSTAAGLLLSLTATSKSAHYV,6.37
11,MRMLWRSLALCGLALTLAPCAQAAPK,2.07
12,MMGVLLSALLLLLFAFEPSASGKKL,6.16
13,MKKGIIRFLLVSFVLFFALSSTGITGVQAAPA,1.83
14,MYKKFVPFRRRKKRFFVSFEMMENPHALDY,7.64
15,MKKVLMAFIICLSLILSVLAAPPSGCKAESV,1.89
16,MRSYIKVKKKCRLGLILFVPTALADNS,6.78
17,MRKKLKWLSFLLGFIILLFLFKYQFSQNDS,8.41
18,MRKRKKRTIFAFLTGLMMFGTITAASASPD,5.69
19,MKKLVLCVSILAVILSGVLLTQLS,5.53
20,MGLGKKLSVAVAASFMSLSISLPGVQQAEG,3.24
21,MMKKLFHSTLIVLLFFSFFGVQIHAKKQ,2.18
22,MRKKRVITCVMAASLTLGSLLPAGYVTAKED,2.51
23,MYKKFVPRTQYSRLFFVSFEMMENPHALDY,7.24
24,MKLAKRVSALTPSTTLAITVKAKEL,6.82
25,MKKWIYVVLVLSIAGIGGPSVHAASS,2.74
26,MHLIRAAGAVCLAVVLIAGCRKNSVQHQAEGENT,5.67

row,Sequence,AmyQ secretion efficiency
1,MKKQTTIINNSTIITATTAVVLGSTLFAGAASAQSI,3.18
2,MMIGQCVICLSLLVFGTTAAHAEET,4.07
3,MKTKTLFIFSAILTLSIEDEDEETFAQTA,5.99
4,MKRTWNTCLTALLSVLLVAGSVPFHAEAKKP,2.37
5,MKMKSGMEQAVSVLLLLSRLPVQASLTSD,6.62
6,MPYLKRVLLLLVTGLFMSLFAVTATASTQTG,1.44
7,MPSCKQLIVCSLAAILLLIPSVSFAADS,3.5
8,MIAYFGKCLLLVTIMFLGVLFGMFATQQANHG,6.56
9,MRKSLITLGLASVIGTSSFLIPFTSKTASAETL,2.73 and 5.9 and 4.16
10,MKLRKVLTGSVLSLGLLKRRRKKAFATSP,5.35
11,MRFTKVVGFLSVLGLAAKKKLTAQAEKA,7.51
12,MRNLTKTKRRKAGLCTAAQMVFVTHASAEES,6.94
13,MKKRLIAPMLLSAASLAFFAMSGSAQHAAY,7.18
14,MRKNRILALFVLSLGLLSFMVTPCSAASK,2.01
15,MMLMMSVSMFLVALTMCGGLFVTPAKAVKT,4.77
16,MKRLLSSLAISALSLGLLVSAPTASFAAES,2.75
17,MPYLKRVLLLLVTGLFMSLFAVTATASKQTG,1.26
18,MKLAKRVSALTPSTTLAITAKLKEL,6.8
19,MKKKQQRLALTAAAGLGLTALHSAPAAKAAPL,5.39
20,MPIKKKVMMCLAVTLVFGSMSFPTLTNSGGFSG,3.08
21,MKKKQVMLALTAAAGLGLTALVFFHSAPAAKAAPL,2.39
22,MLKKIALTLCPAIVGSLLFFTAPWSAHVS,4.74
23,MKVPKTMLLSTAAGLLLSLRRKKRKVSAHYV,6.33
24,MKVCQKSIRFLVSLIIGTFVISVPFMANAQSD,1.22
25,MLKKVKRRRFILVGSTLGAFSFSSDASAKHV,7.34
26,MKKAAAVLLSLGLVFKKRRRKKHVAEAKTK,7.39

row,Sequence,AmyQ secretion efficiency
1,MAIIIAIIAAVIVIAALITFNVFNASPG,7.58
2,MTKLKMLSMLTVMIASLFIFSSQALFVQY,7.31
3,MKKKQVMLKRKKKKGLGLTALHSAPAAKAAPL,8.05
4,MRFTKVVGFLSVLGLAAVFPLTAQAADD,3.85
5,MGKWYYVVLVLSIAGIGGFSVHAASS,7.3
6,MRFTKNVVGFLSVLGLAAVFPLTAQAEKA,2.41
7,MKRNIFNNINLSLLSTLLIGIMLLTFAPSAFAKQD,2
8,MKWMCSICCAAVLLAGGADQAEAV,2.46
9,MHLIRARRRVCLAVVLIAGCRFNEDQHQAEGENT,6.03
10,MFMKHTISLLIIFLLASAVLAKPIEAHTV,2.89
11,MFNTLFSVCFLAALIMAFTLPNSVYAQKP,4.02
12,MKKRFFGPIILAFILFRRRAIAIPS,7.49
13,MGSRTIWTIILGALLVCCIAVAYTLTKSQAGASSS,5.01
14,MKVKKSALLLLLFAFEPSASGKKL,7.2
15,MFNRLFRVCFLAALIMAFVFFIVFTLPNSVYAQKP,2.03
16,MRSYIKVLTMCFLGLILFVEEDALADNS,2.58
17,MLKKIALTLCPAIVGSLLFFTAPASAHKK,1.72
18,MKRRRSIFITCLLITLLTMGGMIASPASAAGT,2.4
19,MKKAAAVLLSLGLVFGFSYGAGHVMEAKTK,5.11
20,MKRLLVSLRVWMVFLMNWVTPDRKTDAAAVY,6.85
21,MHLIRAAGAVCLAVVLIAGCRFNEDQHQAEGRRR,5.26
22,MKKWMAGLFLAAAVLLCLMVPQQYQGASS,6.35
23,MTKLKMLSMLTVMIASLFIFSSQALGVQY,3.68
24,MKKWMITIAMLILAGIALFVFISPPKSHKT,5.84
25,MRGKSAVLLSLIMLIAGFLIPFSFQM,7.72
26,MMKKGLLAGALTATVLFRKCAVRVPGIISPKTAEAASQ,6.57

row,Sequence,AmyQ secretion efficiency
1,MTKRITYSLLALLAVVAFAFTDSSKAKAAEA,2.05
2,MKKSQYFIVFICFFVLFSSHPDEAAAADS,4.15
3,MKKRLIAPMLLSAASLAFFAMSGSNQAAAY,3.88
4,MGLGKKLSVAVAASFMSLSISLPGVQWAEG,3.19
5,MKNMSCKLVVSVTLFFSFLTIGPLAHVQNS,4.29
6,MRKTIFAFLTGLMMFGTITAPSASPD,5.98
7,MRKKKRRVLLLLVTGLFMSLFAVTATASAQTG,1.06
8,MFFVLMAFIICLSLILSVLAAPPSGAKAESV,5.38
9,MRMLWRSLALCGLALTLAPCAQLAEP,6.58
10,MKWMCSICCAAVLLAGLGAAQAEAV,3.8
11,MNLRKILLSSALSLGMLVSAAPVLATEE,1.83
12,MKRLLSTLLIGIMLLTFAPSTFAKQD,1.72
13,MVKKWLIQFAVMLSVLSKKRRKKASAVGV,7.67
14,MKRLLVSLRVWMVFLMNWVTPDRKTTPSGAAAAVY,6.68
15,MNLFLIAPMLLSAASLAFFAMSGSAQAAAY,5.75
16,MKLAKRVSALTPSTTLAITAKAAPK,7.94
17,MPYLKRVLLLLVTGLFMSLFAVTATHSAQTG,6.96
18,MKKKLAAGLTASAIVGTTLVVTPFEAATI,5.7
19,MTLALRVSALTPSTTLAITAKAKEL,7.08
20,MKRLFMKASLVLFAVVFVFAVKGAGAKAETH,1.83
21,MRKYTVIASILLSFLSVLSGGHHESKAFPV,3.25 and 4.96
22,MRSYIKVLTMCFLGLILFVPTTAPSPGFALADNS,4.85
23,MRPVFPLILSAVLFLSCFFGARQTEMSASKR,3.55
